Laboratory results published in publication PMC5380656 (The Journal of Allergy and Clinical Immunology, 2017).

Columns and labels:
[1] = target: biotin-labeled staphylococcal enterotoxin A (Staphylococcus aureus, strain , UniProt P0A0L2, biotin (site not stated)); assay: SPR; Biacore T200; […]; 25°C; […]; conditions: both partners purified
[2] = target: T1, staphylococcal enterotoxin E (Staphylococcus aureus, strain , UniProt P12993); assay: ELISA
T1 construct: source: bought: Toxin Technology

[3] = target: T2, staphylococcal enterotoxin A (Staphylococcus aureus, strain , UniProt P0A0L2); assay: ELISA
T2 construct: source: bought: Toxin Technology

[4] = target: T3, staphylococcal enterotoxin D (Staphylococcus aureus, strain , UniProt P20723); assay: ELISA
T3 construct: source: bought: Toxin Technology

[5] = target: biotin-labeled staphylococcal enterotoxin E (Staphylococcus aureus, strain , UniProt P12993, biotin (site not stated)); assay: SPR; Biacore T200; […]; 25°C; […]; conditions: both partners purified
[6] = target: T4, staphylococcal enterotoxin C1 (Staphylococcus aureus, strain , UniProt P01553); assay: ELISA; conditions: both partners purified
T4 construct: source: bought: Toxin Technology

B1: anti-SEA antibody 1F3, recombinant IgG1 (antibody, V domains shown)
VH: QVQLVESGTDVKKPGSSVKVSCKTSGGTFGDHGITWVRQAPEKGLEYVGRIIPNPGTAYHAQKFQGRVTITADESTGTAYLELSRLSFDDTAVYYCARGMTGYVGAYDYWGQGTLVTVSS
VL: QSVLTQPPSASGTPGQRVSISCSGSSSNIGSNSVSWYQLLPGTAPKLLIYFSHQRPSGVPDRFSASKSGTSASLAISDLQPEDEADYYCASWDDRLNGPVFGGGTKLTVL
notes: also called 1F3 IgG1; HPK-016_1F3
[1]
  binding result: binds
[2]; both partners purified
  binding result: no binding
[3]; both partners purified
  binding result: binds

B2: anti-SED antibody HPK-014_1A4, recombinant IgG1 (antibody, V domains shown)
VH: EVQLLESGGGLVQPGGSLRLSCAASGFNFDSYAMSWVRQAPGKGLEWVSSISSSGGATYYADSVKGRSTISRDNSKNTVSLQMNSLRAEDTAVYYCAKKRRYDAVTGYLFDMWGQGTMVTVSS
VL: DIVMTQSPFSLAVSLGERATMNCKSSQSVLHSSNNENYLAWYQQKPGQPPKLLIYWASTRESGVPDRFSGSGSGTDFTLTISSLQAEDVAVYYCQQFYSPAPYTFGQGTKLEIK
notes: source: HEK 293T, transfected, culture supernatant
[4]; one partner purified
  binding result: binds

B3: anti-SEE antibody HPK-014_1G2, recombinant IgG1 (antibody, V domains shown)
VH: QVQLVESGGGVVPPGGSLRLSCATSGFKFNDYDMHWVRQAPGKGLEWVASIRYHGNKDYYADSVKGRFTISRDNSKNTLSLQMNSLRPEDTAIFYCARDRAQGIVAAAGTSFGYWGQGTLVTVSS
VL: SYELTQPPSVSVSPGQTARITCSADALPKQYVYWYQQKSGQAPVLVMYKDSERPSGIPERFSGSTSGSTVMLTISGVQEEDEAVYYCQSGDTSGFDPDVAFGGGTKLTVL
notes: also called 1G2 IgG1
[5]
  binding result: binds
[4]; both partners purified
  binding result: no binding
[2]; one partner purified
  binding result: binds
[6]
  binding result: binds
[3]; both partners purified
  binding result: no binding

B4: anti-SEE antibody HPK-014_1G2, recombinant IgE (antibody, V domains shown)
VH: B3 VH
VL: B3 VL
notes: also called 1G2 IgE; anti-SEE IgE 1G2
[2]; both partners purified
  binding result: binds

B5: anti-SEE antibody HPK-014_1G2, Fab (Fab, V domains shown)
VH: B3 VH
VL: B3 VL
notes: source: Expi293, purified (LambdaFabSelect agarose)
[2]; both partners purified
  binding result: binds

B6: anti-SED antibody HPK-018_2D6, recombinant IgG1 (antibody, V domains shown)
VH: QVQLVQSGGGLVQPGRSLRLSCRASGFTFGEYAMSWVRQAPGKGVEWVSFIRSRTYGATTEYAASVKGRFTISRDDSESIVYLQMNSLKTEDTAVYYCTTYCSSTSCQIDYWGQGTLVTVSS
VL: QSALTQPPSASALLGASIKLTCTLSSEHSTYIIEWFQQRPGRSPQYIMDVKSDGSYTKGDGIPDRFMGSSSGADRYLTLSNLQSDDEAEYYCGESHTIDGQVGYVFGTGTKVTVL
notes: as for B2
[4]; one partner purified
  binding result: binds

B7: anti-SEE antibody HPK-016_203, recombinant IgG1 (antibody, V domains shown)
VH: EVQLVESGAEVKKPGESLKISCKGSGNTFTNYWIAWVRQRPGKGLEWMGIIYPGDSDTRYSLSFQGQVTISVDKSINTAYLQWSSLRASDTAIYFCVRHCSGGRCSSAPLDSWGQGTLVTVSS
VL: NFMLTQPPSVSESPGKTVTISCTRSSGSIGTYYVHWYQQRPGSAPTTLIYDDSHRPSGVPDRFSGSVDSSSNSASLIISGLKTEDEADYYCLSHDTTNFVFGGGTKLTVL
notes: also called 203 IgG1
[5]
  binding result: binds
[4]; both partners purified
  binding result: no binding
[2]; one partner purified
  binding result: binds
[6]
  binding result: binds
[3]; both partners purified
  binding result: no binding

B8: anti-SEA antibody HPK-018_1B6, recombinant IgG1 (antibody, V domains shown)
VH: EVQLVESGGEVKKPGASVKVSCKTSGYTFSSYYMHWVRQAPGQGLEWMGVINPSGGSIKYAQKFQGRVTMTRDTSTTTIYMDLSSLRSDDTAVYYCAYWGADGFDIWGQGTMVTVSS
VL: QSVLTQPPSASGTPGQRVTISCSGSSSNIGSNSVNWYQQVPGTAPKLLTYGNNQRRSGVPDRFSGSKSGTSASLAISGLQSEDEADYSCAVWDDSLSAWVFGGGTKLTVL
notes: as for B2
[3]; one partner purified
  binding result: binds
